{
  "source": "paper doi:10.1101/2022.05.28.493848",
  "target": "Porcine skeletal muscle α-actin, filamentous (porcine) (UniProt P68137)",
  "data": [
    {"substance": "MyoB-MLC-B CaMLD complex, purified (from UniProt Q8I465 1-801; Q8III1 1-652)", "values": [
      {"measurement": "coupling efficiency (kcat/Kapp) of the actin-activated ATPase", "result": 9}
    ]}
  ]
}
